From patent US20170291930A1 (UNIVERSITY OF MARYLAND BALTIMORE, published 2017)
No end group written: not given here.

These binders were tested against purified recombinant Sap9 (C. albicans secreted aspartic protease 9) (Candida albicans) (assay: cell-based or functional assay).

With DSHAKRHHGYKRKFHERHHSHRGY [Hst-5 synthetic peptide K17R] as the binder, how does the “intact peptide remaining after 2 h at 37 C with 3.13 ug/mL Sap9 (gel densitometry)” value (from here on “intact peptide remaining … (gel densitometry)”) read?
The value was 82%.

And the “intact peptide remaining after 2 h with 6.25 ug/mL Sap9” value?
The value was > 60%.

For DSHAKRHHGYRRKFHEKHHSHRGY [Hst-5 synthetic peptide K11R], which “intact peptide remaining after 2 h with 6.25 ug/mL Sap9” value is on record?
Its value is 20%.

How did the “intact peptide remaining … (gel densitometry)” value turn out when DSHAKRHHGYKRKFHELHHSHRGY [Hst-5 synthetic peptide K17L] was run?
Its value is 77%.

What about the “intact peptide remaining after 2 h with 6.25 ug/mL Sap9” value of the same binder?
The value was > 60%.

For DSHAKRHHGYKRKFHEKHHSHRGY (also: hydrochloride salt) [parent Hst-5 peptide (Histatin-5)], which “intact peptide remaining … (gel densitometry)” value is on record?
The value was 47%.

Which “intact peptide remaining after 2 h with 6.25 ug/mL Sap9” value does the source give for DSHARRHHGYKRKFHEKHHSHRGY [Hst-5 synthetic peptide K5R] here?
The value was 4.5%.
